Test results as given in PMC8752512 (Journal of molecular biology, 2021).

Target: Fgr SH3 domain (human, UniProt P09769 77-138, uniformly 15N-labelled)
Assay: NMR titration

Kd: 347 µM
Binder: PPTPNPPRPP [arrestin-3 aSwI peptide (PPTPNPPRPP)]
